Series [1] relates to Bmal1^−/−; Per2^Luc fibroblasts complemented with WT or trans-locked Bmal1. The experiment in a line: CsA-induced period change in complemented Bmal1-/-. As to conditions: particularly at 10 μM CsA. In kind it is cell-based, mouse.
Series [2] relates to U2OS Bmal1-dLuc cells. Put plainly: Circadian period of U2OS Bmal1-dLuc cells with inhibitors. It counts as cell-based, human. As to conditions: 0.3% DMSO, n = 3 replicates with 2 independent assays.
In series [3] the test system is cyclophilin family. As to conditions: active site; ref Davis et al., 2010; cited from earlier work.
Series [4] has as its system BMAL1 TAD. Put plainly: Cyclophilin acceleration of TAD switch isomerization by 15N-1H ZZ-exchange NMR. It counts as biochemical, mouse. Conditions: room temperature (22.68°C), 400 μM 15N BMAL1 TAD + 100 μM cyclophilin, 20 mM HEPES pH 7.0 (pH 7.5 for His6GST-PPIL3), 100 mM NaCl, 2 mM TCEP.
Series [5] has as its system BMAL1. As to conditions: screen for interacting partners; ref Lipton et al., 2015; cited from earlier work.
Series [6] deals with W624-P625 imide bond of BMAL1 TAD. Put plainly: 15N-1H ZZ-exchange NMR kinetics of TAD switch isomerization. More on the design: species or system mouse.
For series [7], the system named is MLL1. Conditions: ref Wang et al., 2010; cited from earlier work.
Series [8] relates to Bmal1^−/−; Per2^Luc mouse fibroblasts. Put plainly: Circadian period of complemented Bmal1-/-. It counts as cell-based. Conditions: stable complementation, 37°C, dexamethasone-synchronized.
The mark [9] stands for this setting: 25 °C, extrapolated from Eyring plot.
Setting [10] is: 37 °C, extrapolated from Eyring plot.
Where [11] appears, read: 55 °C, 400 μM 15N BMAL1 TAD, 10 mM MES pH 6.5, 50 mM NaCl, 10% D2O.
Setting [12] is: 60 °C, 400 μM 15N BMAL1 TAD, 10 mM MES pH 6.5, 50 mM NaCl, 10% D2O.
[13] abbreviates: 65 °C, 400 μM 15N BMAL1 TAD, 10 mM MES pH 6.5, 50 mM NaCl, 10% D2O.

As to Cyclosporin A [CsA], the “switch-independent effect on period” value in series [1] is “Switch-independent changes in period”. For the same compound, the “effect on circadian period” value in series [2] was “dose-dependent lengthening of circadian period with low doses”. For the same compound, in series [3], the “affinity for cyclophilin family” value is 5 to 500 nM.
For the compound `CC1(C)[C@H](C(=O)O[C@H](C#N)c2cccc(Oc3ccccc3)c2)[C@@H]1C=C(Br)Br` [Deltamethrin], the “effect on circadian period” value in series [2] is “did not elicit a change in period”.
Take “PPIH: human nuclear cyclophilin [reference compound]”: the “activity on TAD switch isomerization, in words” value (shortened to “activity”) in series [4] is “significantly increased the rate of isomerization in BMAL1”.
For “PPIA: peptidyl prolyl isomerase A, human cyclophilin”, in series [5], the “co-immunoprecipitation with BMAL1” value is recorded as “co-immunoprecipitated with BMAL1”.
Turning to “BMAL1 TAD: Mouse BMAL1 TAD (residues 579–626), recombinant”, the overall exchange lifetime entry in series [6] (25 °C) is listed as “approximately 10 minutes”. Also, the “Rate of isomerization cis➔trans” value in series [6] (setting [9]) is 0.00458 s⁻¹; in series [6] (setting [10]) it was 0.0233 s⁻¹; in series [6] (setting [11]), 0.215 s⁻¹; in series [6] (setting [12]), 0.382 s⁻¹; in series [6] (setting [13]) it was 0.667 s⁻¹. Besides, the “Rate of isomerization trans➔cis” value is 0.00264 s⁻¹ in series [6] (setting [9]); 0.0135 s⁻¹ in series [6] (setting [10]); 0.124 s⁻¹ in series [6] (setting [11]); 0.22 s⁻¹ in series [6] (setting [12]); 0.384 s⁻¹ in series [6] (setting [13]). For the same compound, the “Time per isomerization event cis➔trans” value was 218.34 s in series [6] (setting [9]); 42.92 s in series [6] (setting [10]); 4.65 s in series [6] (55 °C); 2.62 s in series [6] (60 °C); 1.50 s in series [6] (65 °C). For the same compound, the “Time per isomerization event trans➔cis” value in series [6] (setting [9]) is reported as 378.78 s; in series [6] (setting [10]) it was 74.07 s; in series [6] (55 °C) it was 8.06 s; in series [6] (60 °C), 4.55 s; in series [6] (65 °C), 2.60 s. Further, in series [6] (25 °C, in words), the “detection of isomerization by ZZ exchange” value was “too slow to be detected at room temperature”. Besides, the “temperature at which exchange cross peaks first appeared” value in series [6] (ZZ exchange at increasing temperature) was 55 °C.
For “PPIF: mitochondrial cyclophilin [reference compound]”, the “activity” value in series [4] was “at least as active on the TAD as the top-ranked nuclear cyclophilins”.
On to “PPIE: human nuclear cyclophilin [reference compound]”, for which, in series [7], the “binding to MLL1” value was “binds to the histone methyltransferase MLL1 to modulate its activity”. For the same compound, the “activity” value in series [4] is “significantly increased the rate of isomerization in BMAL1”.
With “wild type Bmal1: Flag-tagged mouse Bmal1 stably complemented in cells”, in series [8], the circadian period entry is reported as “approximately 23 hours”.

The record behind these values is paper PMC5484534 (Molecular cell, 2017).
